Measured values published in the Immune Epitope Database (IEDB).

Assays:
HLA-A*26:01 = test: IEDB peptide-MHC binding, purified MHC/competitive/fluorescence; filed as Kd, often an IC50 or EC50 that approximates it; ≥ and ≤ were set here for values at or beyond the usual limits of such assays; details: source organism: Yersinia pestis KIM10+
HLA-A*11:01 [1] = test: as above; details: source organism: Yersinia pestis KIM10+
HLA-B*15:09 = test: IEDB peptide-MHC binding, purified MHC/direct/fluorescence; filed as Kd, often an IC50 or EC50 that approximates it; ≥ and ≤ were set here for values at or beyond the usual limits of such assays; details: source organism: Yersinia pestis KIM10+
HLA-B*08:02 = test: as above
HLA-B*07:02 = test: as above
HLA-B*27:05 = test: as above
HLA-B*39:01 = test: as above; details: source organism: Yersinia pestis KIM10+
HLA-B*46:01 = test: as above
HLA-B*15:02 = test: as above
HLA-A*02:01 = test: as above
HLA-A*31:01 = test: as above
HLA-B*58:01 = test: as above
HLA-B*48:01 = test: as above
HLA-B*15:01 = test: as above
HLA-A*01:01 = test: as above
HLA-B*35:01 = test: as above; details: source organism: Yersinia pestis KIM10+
HLA-A*24:02 = test: IEDB peptide-MHC binding, cellular MHC/competitive/fluorescence; ≥ and ≤ were set here for values at or beyond the usual limits of such assays; details: source organism: Human herpesvirus 5 strain AD169
HLA-B*73:01 = test: IEDB peptide-MHC binding, purified MHC/competitive/fluorescence; filed as Kd, often an IC50 or EC50 that approximates it; ≥ and ≤ were set here for values at or beyond the usual limits of such assays; details: source organism: Yersinia enterocolitica subsp. enterocolitica 8081
HLA-A*26:02 = test: as above; details: source organism: Vaccinia virus WR
HLA-B*15:17 = test: as above; details: source organism: Vaccinia virus WR
HLA-B*15:03 = test: IEDB peptide-MHC binding, purified MHC/competitive/radioactivity; filed as Kd, often an IC50 or EC50 that approximates it; ≥ and ≤ were set here for values at or beyond the usual limits of such assays; details: source organism: Vaccinia virus WR
HLA-A*26:03 = test: IEDB peptide-MHC binding, purified MHC/direct/fluorescence; filed as Kd, often an IC50 or EC50 that approximates it; ≥ and ≤ were set here for values at or beyond the usual limits of such assays; details: source organism: Variola virus
HLA-A*69:01 = test: as above; details: source organism: Camelpox virus M-96
HLA-B*57:01 = test: as above; details: source organism: Camelpox virus M-96
HLA-A*68:02 = test: as above; details: source organism: Camelpox virus M-96
HLA-A*11:01 [2] = test: as above; details: source organism: Camelpox virus M-96
[3] = source organism: Yersinia pestis KIM10+
[4] = source organism: Yersinia pestis
[5] = source organism: Camelpox virus M-96

STFAASGPF
0.009 µM: Kd (HLA-B*15:02; [3])
≥ 20 µM: Kd (HLA-A*11:01 [1]) | Kd (HLA-B*15:09) | Kd (HLA-B*08:02; [3]) | Kd (HLA-B*07:02; [4]) | Kd (HLA-B*27:05; [4]) | Kd (HLA-B*39:01) | Kd (HLA-A*02:01; [4]) | Kd (HLA-A*31:01; [4]) | Kd (HLA-B*58:01; [4]) | Kd (HLA-B*48:01; [4]) | Kd (HLA-A*01:01; [4])
6.19 µM: Kd (HLA-B*46:01; [4])
0.045 µM: Kd (HLA-B*35:01)
0.007 µM: Kd (HLA-B*15:01; [4])
0.0192 µM: Kd (HLA-A*26:01)

VFPTKDVAL
≥ 333 µM: IC50 (HLA-A*24:02)

WDYLVRHDA
4.5 µM: Kd (HLA-B*73:01)

YQYIFLSFF
1.94 µM: Kd (HLA-B*15:02; source organism: Variola virus)
≥ 20 µM: Kd (HLA-A*26:02) | Kd (HLA-B*15:17) | Kd (HLA-B*08:02; source organism: Variola virus) | Kd (HLA-B*07:02; [5]) | Kd (HLA-B*27:05; [5]) | Kd (HLA-A*26:03) | Kd (HLA-B*46:01; [5]) | Kd (HLA-A*69:01) | Kd (HLA-B*57:01) | Kd (HLA-A*68:02) | Kd (HLA-A*02:01; [5]) | Kd (HLA-A*31:01; [5]) | Kd (HLA-B*58:01; [5]) | Kd (HLA-B*48:01; [5]) | Kd (HLA-A*01:01; [5]) | Kd (HLA-A*11:01 [2])
0.000944 µM: Kd (HLA-B*15:03)
3.06 µM: Kd (HLA-B*15:01; [5])
